Test results: patent US20220332804A1 (CSL INNOVATION, published 2022)

How the values were obtained:
Assay in all cases: SPR, KD relative to WT C2;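 also: biacore SPR at 37 °C, anti-C2 mAbs captured on anti-human IgG chips with alanine or serine point mutants of C2 as analyte, KD from 1:1 fit compared with wild-type C2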
[1] = target: T1, human C2 S278A (human, UniProt P06681 21-752)
T1 sequence: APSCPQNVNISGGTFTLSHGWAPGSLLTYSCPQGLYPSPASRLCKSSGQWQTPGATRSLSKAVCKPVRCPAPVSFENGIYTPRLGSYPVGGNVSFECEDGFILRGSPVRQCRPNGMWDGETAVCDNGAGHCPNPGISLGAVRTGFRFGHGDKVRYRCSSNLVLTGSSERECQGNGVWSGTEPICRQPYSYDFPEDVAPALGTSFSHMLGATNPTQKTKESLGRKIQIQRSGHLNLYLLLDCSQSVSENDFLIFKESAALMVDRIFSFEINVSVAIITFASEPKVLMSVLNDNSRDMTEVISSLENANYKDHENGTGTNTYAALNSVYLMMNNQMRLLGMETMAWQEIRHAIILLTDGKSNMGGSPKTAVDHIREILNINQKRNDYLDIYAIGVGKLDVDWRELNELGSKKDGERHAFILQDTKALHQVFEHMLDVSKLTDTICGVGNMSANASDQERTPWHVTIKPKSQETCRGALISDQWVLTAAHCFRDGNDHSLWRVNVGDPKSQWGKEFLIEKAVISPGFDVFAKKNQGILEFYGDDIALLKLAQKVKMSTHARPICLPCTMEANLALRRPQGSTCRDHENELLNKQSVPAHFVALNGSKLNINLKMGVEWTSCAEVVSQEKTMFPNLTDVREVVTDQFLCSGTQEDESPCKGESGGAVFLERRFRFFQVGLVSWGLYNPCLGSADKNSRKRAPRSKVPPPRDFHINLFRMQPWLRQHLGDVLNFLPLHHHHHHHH
Protocol: (§1) Surface plasmon resonance (SPR, Biacore) was used for all binding affinity analyses. In brief, goat anti-human IgG was directly immobilised onto the carboxymethyl dextran surface of CM5 sensorchips to approximately 12,000 RU using standard NHS/EDC chemistry at pH 5. The immobilised antibody surface was pre-conditioned with ten injections of polyclonal human IgG (Privigen 60 s) prepared at 1 μg/mL. Ligands (anti-C2 mAbs) were captured at the beginning of each cycle as described below. An adjacent spot or flow cell in which only Polyclonal IgG was capture was used as a reference surface. The goat anti-human IgG Fc antibody surface was regenerate in 100 mM H3PO4, injected for 45 seconds at the end of each cycle. Experiments were performed at 37° C. and the flow rate of each experiment was kept constant at 30 μL/min.
(§2) Sensogram data was double-referenced against a reference anti-IgG surface (i.e. minus anti-C2 mAb) and blank buffer injections obtained within each experiment. The binding data was fit to 1:1 (kinetic or steady-state) model using local Rmax and null refraction index (RI=0) when appropriate. Buffers and solutions were filtered (0.22 μm) prior to use.

[2] = target: T2, human C2 L453A (human, UniProt P06681 21-752)
T2 sequence: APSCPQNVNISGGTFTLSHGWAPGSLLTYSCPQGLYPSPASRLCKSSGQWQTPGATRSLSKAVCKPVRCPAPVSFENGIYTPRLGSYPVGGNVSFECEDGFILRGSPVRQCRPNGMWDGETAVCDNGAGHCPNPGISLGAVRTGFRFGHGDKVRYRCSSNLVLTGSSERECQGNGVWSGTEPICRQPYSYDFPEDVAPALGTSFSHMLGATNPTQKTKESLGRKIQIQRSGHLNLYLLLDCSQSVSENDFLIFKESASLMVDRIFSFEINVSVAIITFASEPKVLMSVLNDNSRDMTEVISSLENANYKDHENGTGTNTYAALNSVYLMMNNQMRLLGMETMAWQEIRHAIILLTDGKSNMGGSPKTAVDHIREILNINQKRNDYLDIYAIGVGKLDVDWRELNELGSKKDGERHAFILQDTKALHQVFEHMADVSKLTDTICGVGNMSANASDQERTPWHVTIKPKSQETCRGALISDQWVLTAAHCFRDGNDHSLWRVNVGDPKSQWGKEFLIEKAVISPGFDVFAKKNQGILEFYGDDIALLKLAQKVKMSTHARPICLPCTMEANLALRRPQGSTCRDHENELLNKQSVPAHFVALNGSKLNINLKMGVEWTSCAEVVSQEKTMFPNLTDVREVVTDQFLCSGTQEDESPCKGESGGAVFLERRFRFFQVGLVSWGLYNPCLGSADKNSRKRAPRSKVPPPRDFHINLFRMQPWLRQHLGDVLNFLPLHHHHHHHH
Protocol: as §1, §2

[3] = target: T3, human C2 V455A (human, UniProt P06681 21-752)
T3 sequence: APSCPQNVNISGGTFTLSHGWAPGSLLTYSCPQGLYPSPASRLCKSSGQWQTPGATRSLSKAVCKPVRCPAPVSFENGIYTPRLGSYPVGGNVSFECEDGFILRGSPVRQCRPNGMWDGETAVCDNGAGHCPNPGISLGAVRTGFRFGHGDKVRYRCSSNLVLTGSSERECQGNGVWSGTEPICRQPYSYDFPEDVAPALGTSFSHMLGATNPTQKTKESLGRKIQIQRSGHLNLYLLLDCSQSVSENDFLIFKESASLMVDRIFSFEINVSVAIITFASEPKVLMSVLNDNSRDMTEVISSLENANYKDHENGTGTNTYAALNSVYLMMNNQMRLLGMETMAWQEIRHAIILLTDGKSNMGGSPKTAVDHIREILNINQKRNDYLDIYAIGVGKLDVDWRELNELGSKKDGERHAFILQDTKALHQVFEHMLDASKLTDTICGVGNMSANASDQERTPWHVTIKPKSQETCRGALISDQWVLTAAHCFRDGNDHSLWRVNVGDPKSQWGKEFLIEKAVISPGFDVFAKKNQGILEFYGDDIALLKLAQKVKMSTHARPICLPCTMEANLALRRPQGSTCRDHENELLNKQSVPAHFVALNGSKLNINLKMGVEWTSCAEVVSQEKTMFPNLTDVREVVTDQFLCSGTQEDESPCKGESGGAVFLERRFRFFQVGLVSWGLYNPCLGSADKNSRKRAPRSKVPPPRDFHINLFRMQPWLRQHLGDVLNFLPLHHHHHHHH
Protocol: as §1, §2

[4] = target: T4, human C2 N325A (human, UniProt P06681 21-752)
T4 sequence: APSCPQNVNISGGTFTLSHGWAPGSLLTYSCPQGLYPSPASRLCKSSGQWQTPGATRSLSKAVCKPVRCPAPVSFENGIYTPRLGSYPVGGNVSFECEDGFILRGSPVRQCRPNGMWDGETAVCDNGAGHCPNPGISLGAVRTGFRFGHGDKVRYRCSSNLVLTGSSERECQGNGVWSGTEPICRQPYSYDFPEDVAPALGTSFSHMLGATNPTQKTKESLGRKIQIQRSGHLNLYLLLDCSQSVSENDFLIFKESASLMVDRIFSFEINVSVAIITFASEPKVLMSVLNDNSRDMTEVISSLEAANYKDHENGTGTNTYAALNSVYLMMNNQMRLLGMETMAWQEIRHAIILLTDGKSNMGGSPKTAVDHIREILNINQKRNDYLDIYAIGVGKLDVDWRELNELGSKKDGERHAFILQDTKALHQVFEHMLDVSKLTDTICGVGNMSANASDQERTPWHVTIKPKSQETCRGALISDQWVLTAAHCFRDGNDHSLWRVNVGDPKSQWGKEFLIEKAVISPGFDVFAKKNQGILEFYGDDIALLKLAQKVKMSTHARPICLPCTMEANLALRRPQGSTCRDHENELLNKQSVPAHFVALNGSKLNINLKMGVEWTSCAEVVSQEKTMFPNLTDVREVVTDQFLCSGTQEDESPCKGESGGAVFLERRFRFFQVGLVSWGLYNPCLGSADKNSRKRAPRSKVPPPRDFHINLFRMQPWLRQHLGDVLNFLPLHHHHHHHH
Protocol: as §1, §2

B1: RF16-242 (antibody, human IgG4 S228P, lambda, V domains shown)
VH: EVQLLQSGAEVKKPGESLKISCKGSGYSFTSYWIGWVRQMPGKGLEWMGIIYPGDSDTRYSPSFQGQVTISADKSISTAYLQWSSLKASDTAMYYCARRGHYGDYFDYWGQGTLVTVSS
VL: SYELTQPPSVSVSPGQTARITCSGDALPKKYAYWYHQKSGQAPVLVIYEDRRRPSEIPERFSGSSSGTMATLTITGAQVEDEGVYFCYSRDRAGNQRVFGGGTQLTVLG
notes: pH-dependent anti-C2 antibody from a phage display library
[1]
  Fold diff: 1 fold
[2]
  Fold diff: 1 fold
[3]
  Fold diff: 1 fold
[4]
  Fold diff: 6 fold
